The results in this text go back to paper PMC6614540.

Assay [1] addresses Gh-TDH D78A mutant (Grimontia hollisae). Put plainly: native gel or EMSA; native PAGE, 10% polyacrylamide gel, no SDS, 4 °C, running buffer 90 mM Tris-base, 2.5 mM EDTA, 80 mM boric acid pH 8.0, 90 V for 3 h, Coomassie stain.
Assay [2] addresses Gh-TDH F159D mutant (Grimontia hollisae). The experiment in a line: AUC; 1 mg/mL protein in 20 mM Tris-HCl pH 7.2, 42,000 rpm, 20 °C, 280 nm; c(s) distribution and apparent molecular mass.
The target is the same in assay [3].
For assay [4] the target is unchanged. The experiment in a line: native gel or EMSA; native PAGE, 10% polyacrylamide gel, no SDS, 4 °C, running buffer 90 mM Tris-base, 2.5 mM EDTA, 80 mM boric acid pH 8.0, 90 V for 3 h, Coomassie stain. (Mobility shift assays separate free from complexed probe on a gel.)
The target in assay [5] is Gh-TDH Y53D mutant (Grimontia hollisae). Put plainly: AUC; 1 mg/mL protein in 20 mM Tris-HCl pH 7.2, 42,000 rpm, 20 °C, 280 nm; c(s) distribution and apparent molecular mass.
The target is the same in assay [6].
The target is the same in assay [7]. The experiment in a line: native gel or EMSA; native PAGE, 10% polyacrylamide gel, no SDS, 4 °C, running buffer 90 mM Tris-base, 2.5 mM EDTA, 80 mM boric acid pH 8.0, 90 V for 3 h, Coomassie stain.
Assay [8] deals with Gh-TDH Y53D/F159D double mutant (Grimontia hollisae).
Assay [9] addresses Grimontia hollisae thermostable direct hemolysin, wild type (Grimontia hollisae). Put plainly: AUC; 1 mg/mL protein in 20 mM Tris-HCl pH 7.2, 42,000 rpm, 20 °C, 280 nm; c(s) distribution and apparent molecular mass.

The stoichiometry N is a count of units in the complex or per binding partner.

On to Gh-TDH D78A mutant (natural protein), for which, in assay [1], the stoichiometry N stood at 4.
Turning to Gh-TDH F159D mutant (natural protein), the stoichiometry N in [2] and in assay [4] was 2 each time. The substance also had a hemolytic activity on rabbit erythrocytes, decrease against Gh-TDH^WT in assay [3] of 10 fold.
Regarding Gh-TDH Y53D mutant (natural protein), the stoichiometry N in [5] and in assay [7] was 2 in each case. Also, the hemolytic activity on rabbit erythrocytes, decrease against Gh-TDH^WT in [6] worked out at 20 fold.
In turn, “Gh-TDH Y53D/F159D double mutant (natural protein)” displayed a hemolytic activity on rabbit erythrocytes, drop against Gh-TDH^WT in [8] of 200 fold.
On to “Grimontia hollisae thermostable direct hemolysin, wild type (natural protein)”, for which the stoichiometry N in assay [9] is 4.
